T1: G9a and GLP (Homo sapiens, UniProt Q96KQ7+Q9H9B1)
T1 sequence (Q96KQ7 2-1210 limits assumed): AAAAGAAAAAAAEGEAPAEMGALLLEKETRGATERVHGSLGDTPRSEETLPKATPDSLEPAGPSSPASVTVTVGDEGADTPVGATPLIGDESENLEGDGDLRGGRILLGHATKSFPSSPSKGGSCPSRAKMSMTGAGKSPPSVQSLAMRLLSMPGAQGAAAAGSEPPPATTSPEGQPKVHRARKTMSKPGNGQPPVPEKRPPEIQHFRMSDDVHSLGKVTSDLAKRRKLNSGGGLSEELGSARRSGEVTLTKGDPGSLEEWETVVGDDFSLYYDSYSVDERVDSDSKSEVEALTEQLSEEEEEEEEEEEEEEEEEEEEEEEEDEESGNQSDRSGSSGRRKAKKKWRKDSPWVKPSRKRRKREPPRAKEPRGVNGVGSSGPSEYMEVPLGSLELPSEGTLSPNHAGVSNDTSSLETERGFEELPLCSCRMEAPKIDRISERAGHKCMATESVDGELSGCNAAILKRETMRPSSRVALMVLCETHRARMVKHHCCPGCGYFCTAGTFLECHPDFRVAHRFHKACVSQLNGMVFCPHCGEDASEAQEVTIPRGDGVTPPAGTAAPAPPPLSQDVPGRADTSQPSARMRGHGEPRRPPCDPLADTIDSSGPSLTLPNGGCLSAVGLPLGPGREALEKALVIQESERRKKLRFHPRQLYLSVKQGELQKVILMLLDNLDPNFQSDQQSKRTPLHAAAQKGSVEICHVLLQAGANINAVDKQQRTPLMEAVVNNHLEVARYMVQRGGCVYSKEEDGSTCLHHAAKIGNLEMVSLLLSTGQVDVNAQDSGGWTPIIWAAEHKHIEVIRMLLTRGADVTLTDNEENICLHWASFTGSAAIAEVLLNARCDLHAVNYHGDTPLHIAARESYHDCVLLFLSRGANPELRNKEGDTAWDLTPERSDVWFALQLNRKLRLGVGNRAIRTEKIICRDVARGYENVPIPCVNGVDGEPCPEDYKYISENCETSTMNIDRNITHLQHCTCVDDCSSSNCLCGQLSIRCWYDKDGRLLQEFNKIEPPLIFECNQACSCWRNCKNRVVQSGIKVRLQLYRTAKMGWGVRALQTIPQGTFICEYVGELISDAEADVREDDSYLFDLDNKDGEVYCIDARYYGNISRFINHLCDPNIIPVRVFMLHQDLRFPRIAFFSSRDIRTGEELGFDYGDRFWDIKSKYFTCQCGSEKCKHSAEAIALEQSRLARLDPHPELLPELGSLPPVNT
T1 sequence (Q9H9B1 2-1298 limits assumed): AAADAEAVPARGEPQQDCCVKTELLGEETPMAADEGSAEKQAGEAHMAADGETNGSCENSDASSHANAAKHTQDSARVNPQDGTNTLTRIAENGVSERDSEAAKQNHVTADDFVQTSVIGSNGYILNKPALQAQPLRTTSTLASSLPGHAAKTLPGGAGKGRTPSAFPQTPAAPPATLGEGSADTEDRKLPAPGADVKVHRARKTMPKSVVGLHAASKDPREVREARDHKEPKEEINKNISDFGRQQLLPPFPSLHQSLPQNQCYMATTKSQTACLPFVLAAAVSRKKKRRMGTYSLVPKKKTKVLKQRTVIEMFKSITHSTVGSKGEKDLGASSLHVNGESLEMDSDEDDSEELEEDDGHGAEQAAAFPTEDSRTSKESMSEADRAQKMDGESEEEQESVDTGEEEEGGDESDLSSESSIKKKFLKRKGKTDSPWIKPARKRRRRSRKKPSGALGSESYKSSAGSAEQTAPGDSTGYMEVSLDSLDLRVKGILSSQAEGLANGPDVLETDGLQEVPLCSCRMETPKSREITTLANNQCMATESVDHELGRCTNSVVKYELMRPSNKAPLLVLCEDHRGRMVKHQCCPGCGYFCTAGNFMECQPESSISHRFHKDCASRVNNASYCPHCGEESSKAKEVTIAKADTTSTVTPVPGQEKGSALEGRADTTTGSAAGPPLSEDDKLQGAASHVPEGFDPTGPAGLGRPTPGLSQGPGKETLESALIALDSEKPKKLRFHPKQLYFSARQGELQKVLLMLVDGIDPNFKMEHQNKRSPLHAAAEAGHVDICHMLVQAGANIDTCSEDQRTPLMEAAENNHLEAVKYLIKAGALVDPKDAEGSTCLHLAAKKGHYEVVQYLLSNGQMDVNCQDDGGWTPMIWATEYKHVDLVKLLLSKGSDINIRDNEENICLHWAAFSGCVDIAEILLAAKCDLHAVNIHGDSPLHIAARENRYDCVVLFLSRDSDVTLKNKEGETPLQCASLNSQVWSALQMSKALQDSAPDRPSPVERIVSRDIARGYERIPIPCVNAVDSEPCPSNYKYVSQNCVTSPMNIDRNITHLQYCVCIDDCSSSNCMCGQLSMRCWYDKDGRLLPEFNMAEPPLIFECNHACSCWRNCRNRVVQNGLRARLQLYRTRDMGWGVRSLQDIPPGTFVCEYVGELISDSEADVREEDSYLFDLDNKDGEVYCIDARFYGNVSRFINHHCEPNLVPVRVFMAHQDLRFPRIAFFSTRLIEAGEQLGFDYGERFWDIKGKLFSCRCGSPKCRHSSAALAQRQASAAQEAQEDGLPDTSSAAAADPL


How the values were obtained:
[1] = system: 3×MBT domain of L3MBTL1; experiment: Triple SILAC pull-down, 3xMBT/3xMBTD355N ratio (cytoplasmic, nuclear and chromatin fractions of 293T cells); format: binding, human; settings: SILAC ratio, pull-down 3xMBT vs 3xMBTD355N; for 3xMBT/D355N UNC Heavy: experiment with UNC0638 in heavy SILAC media; for 3xMBT/D355N UNC Light: experiment with UNC0638 in light SILAC media;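 for all read-outs here: proteins quantified with MaxQuant, requiring at least two unique peptides and quantification in both label directions, normalized to the mean of proteins from a digested loading control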
[2] = target: T1, G9a and GLP; experiment: Triple SILAC pull-down after UNC0638 treatment of 293T cells, DMSO/UNC0638 ratio of protein captured by 3×MBT; format: cell-based; design: endogenous in cells; host or cells: HEK 293T; settings: for Relative to UNC0638 UNC Heavy / Relative to UNC0638 UNC Light: SILAC ratio DMSO/UNC0638 of protein pulled down with 3xMBT; for Relative to UNC0638 UNC Heavy: UNC0638 in heavy SILAC media; for Relative to UNC0638 UNC Light: UNC0638 in light SILAC media; for Relative to UNC0638 Average: average of UNC Light and UNC Heavy experiments;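 for all read-outs here: mass spectrometry (Q-Exactive) SILAC quantitation, DMSO/UNC0638 ratio computed after subtracting 3×MBTD355N mutant pull-down background, only proteins with at least twofold 3×MBT over mutant signal considered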

Row | Relative to UNC0638 UNC Heavy [2] | Relative to UNC0638 UNC Light [2] | Relative to UNC0638 Average [2] | Molecule | 3xMBT/D355N UNC Heavy [1] | 3xMBT/D355N UNC Light [1]
1 | −0.09 log base 2 | 0.37 log base 2 | 0.14 log base 2 | SH3PXD2B (protein, UniProt A1X283 1-911, looked up) SH3 and PX domain-containing …: MPPRRSIVEVKVLDVQKRRVPNKHYVYIIRVTWSSGSTEAIYRRYSKFFDLQMQMLDKFPMEGGQKDPKQRIIPFLPGKILFRRSHIRDVAVKRLIPIDEYCKALIQLPPYISQCDEVLQFFETRPEDLNPPKEEHIGKKKSGGDQTSVDPMVLEQYVVVANYQKQESSEISLSVGQVVDIIEKNESGWWFVSTAEEQGWVPATCLEGQDGVQDEFSLQPEEEEKYTVIYPYTARDQDEMNLERGAVVEVIQKNLEGWWKIRYQGKEGWAPASYLKKNSGEPLPPKPGPGSPSHPGALDLDGVSRQQNAVGREKELLSSQRDGRFEGRPVPDGDAKQRSPKMRQRPPPRRDMTIPRGLNLPKPPIPPQVEEEYYTIAEFQTTIPDGISFQAGLKVEVIEKNLSGWWYIQIEDKEGWAPATFIDKYKKTSNASRPNFLAPLPHEVTQLRLGEAAALENNTGSEATGPSRPLPDAPHGVMDSGLPWSKDWKGSKDVLRKASSDMSASAGYEEISDPDMEEKPSLPPRKESIIKSEGELLERERERQRTEQLRGPTPKPPGVILPMMPAKHIPPARDSRRPEPKPDKSRLFQLKNDMGLECGHKVLAKEVKKPNLRPISKSKTDLPEEKPDATPQNPFLKSRPQVRPKPAPSPKTEPPQGEDQVDICNLRSKLRPAKSQDKSLLDGEGPQAVGGQDVAFSRSFLPGEGPGRAQDRTGKQDGLSPKEISCRAPPRPAKTTDPVSKSVPVPLQEAPQQRPVVPPRRPPPPKKTSSSSRPLPEVRGPQCEGHESRAAPTPGRALLVPPKAKPFLSNSLGGQDDTRGKGSLGPWGTGKIGENREKAAAASVPNADGLKDSLYVAVADFEGDKDTSSFQEGTVFEVREKNSSGWWFCQVLSGAPSWEGWIPSNYLRKKP | 3.07 log base 2 | 3.71 log base 2
2 | 0.11 log base 2 | 0.18 log base 2 | 0.14 log base 2 | SF3B1 (protein, UniProt O75533 1-1304, looked up) Splicing factor 3B subunit 1: MAKIAKTHEDIEAQIREIQGKKAALDEAQGVGLDSTGYYDQEIYGGSDSRFAGYVTSIAATELEDDDDDYSSSTSLLGQKKPGYHAPVALLNDIPQSTEQYDPFAEHRPPKIADREDEYKKHRRTMIISPERLDPFADGGKTPDPKMNARTYMDVMREQHLTKEEREIRQQLAEKAKAGELKVVNGAAASQPPSKRKRRWDQTADQTPGATPKKLSSWDQAETPGHTPSLRWDETPGRAKGSETPGATPGSKIWDPTPSHTPAGAATPGRGDTPGHATPGHGGATSSARKNRWDETPKTERDTPGHGSGWAETPRTDRGGDSIGETPTPGASKRKSRWDETPASQMGGSTPVLTPGKTPIGTPAMNMATPTPGHIMSMTPEQLQAWRWEREIDERNRPLSDEELDAMFPEGYKVLPPPAGYVPIRTPARKLTATPTPLGGMTGFHMQTEDRTMKSVNDQPSGNLPFLKPDDIQYFDKLLVDVDESTLSPEEQKERKIMKLLLKIKNGTPPMRKAALRQITDKAREFGAGPLFNQILPLLMSPTLEDQERHLLVKVIDRILYKLDDLVRPYVHKILVVIEPLLIDEDYYARVEGREIISNLAKAAGLATMISTMRPDIDNMDEYVRNTTARAFAVVASALGIPSLLPFLKAVCKSKKSWQARHTGIKIVQQIAILMGCAILPHLRSLVEIIEHGLVDEQQKVRTISALAIAALAEAATPYGIESFDSVLKPLWKGIRQHRGKGLAAFLKAIGYLIPLMDAEYANYYTREVMLILIREFQSPDEEMKKIVLKVVKQCCGTDGVEANYIKTEILPPFFKHFWQHRMALDRRNYRQLVDTTVELANKVGAAEIISRIVDDLKDEAEQYRKMVMETIEKIMGNLGAADIDHKLEEQLIDGILYAFQEQTTEDSVMLNGFGTVVNALGKRVKPYLPQICGTVLWRLNNKSAKVRQQAADLISRTAVVMKTCQEEKLMGHLGVVLYEYLGEEYPEVLGSILGALKAIVNVIGMHKMTPPIKDLLPRLTPILKNRHEKVQENCIDLVGRIADRGAEYVSAREWMRICFELLELLKAHKKAIRRATVNTFGYIAKAIGPHDVLATLLNNLKVQERQNRVCTTVAIAIVAETCSPFTVLPALMNEYRVPELNVQNGVLKSLSFLFEYIGEMGKDYIYAVTPLLEDALMDRDLVHRQTASAVVQHMSLGVYGFGCEDSLNHLLNYVWPNVFETSPHVIQAVMGALEGLRVAIGPCRMLQYCLQGLFHPARKVRDVYWKIYNSIYIGSQDALIAHYPRIYNDDKNTYIRYELDYIL | 3.17 log base 2 | 3.31 log base 2
3 | 0.24 log base 2 | 0.04 log base 2 | 0.14 log base 2 | DSTN (protein, UniProt P60981 2-165, looked up) Destrin: ASGVQVADEVCRIFYDMKVRKCSTPEEIKKRKKAVIFCLSADKKCIIVEEGKEILVGDVGVTITDPFKHFVGMLPEKDCRYALYDASFETKESRKEELMFFLWAPELAPLKSKMIYASSKDAIKKKFQGIKHECQANGPEDLNRACIAEKLGGSLIVAFEGCPV | 3.00 log base 2 | 2.54 log base 2
4 | 0.20 log base 2 | 0.08 log base 2 | 0.14 log base 2 | U2AF1 (protein, UniProt Q01081 2-240, looked up) Splicing factor U2AF 35 kDa …: AEYLASIFGTEKDKVNCSFYFKIGACRHGDRCSRLHNKPTFSQTIALLNIYRNPQNSSQSADGLRCAVSDVEMQEHYDEFFEEVFTEMEEKYGEVEEMNVCDNLGDHLVGNVYVKFRREEDAEKAVIDLNNRWFNGQPIHAELSPVTDFREACCRQYEMGECTRGGFCNFMHLKPISRELRRELYGRRRKKHRSRSRSRERRSRSRDRGRGGGGGGGGGGGGRERDRRRSRDRERSGRF | 3.19 log base 2 | 2.52 log base 2

Reference: patent US20140274782A1, “AFFINITY REAGENTS AND METHODS FOR DETECTION, PURIFICATION, AND PROTEOMIC ANALYSIS OF METHYLATED PROTEINS” (The Board of Trustees of the Leland Stanford Junior …, priority 2013, published 2014)
